Results as given in publication PMC5542067.
Read-outs that look alike come from different tables or passages of the source.

Key:
CTCF ZF3-7 [1] = target: T1, CTCF ZF3-7 (human, UniProt P49711 321-465); assay: crystal structure
T1 sequence: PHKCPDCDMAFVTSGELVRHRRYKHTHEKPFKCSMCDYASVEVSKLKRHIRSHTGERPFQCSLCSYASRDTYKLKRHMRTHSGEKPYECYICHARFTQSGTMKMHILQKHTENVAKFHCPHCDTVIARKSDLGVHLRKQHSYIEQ

CTCF ZF4-7 [2] = target: T2, CTCF ZF4-7 (human, UniProt P49711 349-465); assay: fluorescence polarization
T2 sequence: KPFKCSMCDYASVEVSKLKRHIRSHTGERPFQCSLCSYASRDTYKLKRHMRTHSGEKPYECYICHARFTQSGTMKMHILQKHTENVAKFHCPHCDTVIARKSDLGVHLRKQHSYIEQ

CTCF ZF4-7 [3] = target: T2, CTCF ZF4-7; assay: fluorescence polarization; remark: listed apart in the source
CTCF ZF4-7 [4] = target: T2, CTCF ZF4-7; assay: fluorescence polarization; remark: listed apart in the source
CTCF ZF3-7 [5] = target: T1, CTCF ZF3-7; assay: fluorescence polarization
CTCF ZF4-8 [6] = target: T3, CTCF ZF4-8 (human, UniProt P49711 348-492); assay: fluorescence polarization
T3 sequence: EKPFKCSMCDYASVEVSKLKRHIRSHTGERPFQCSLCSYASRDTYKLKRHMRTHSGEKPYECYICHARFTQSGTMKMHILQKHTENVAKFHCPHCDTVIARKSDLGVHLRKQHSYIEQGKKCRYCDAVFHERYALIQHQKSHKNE

CTCF ZF4-7 [7] = target: T2, CTCF ZF4-7; assay: fluorescence polarization; remark: listed apart in the source
CTCF ZF3-7 [8] = target: T1, CTCF ZF3-7; assay: fluorescence polarization; remark: listed apart in the source
CTCF ZF4-7 [9] = target: T2, CTCF ZF4-7; assay: fluorescence polarization; remark: listed apart in the source
CTCF ZF4-8 [10] = target: T3, CTCF ZF4-8; assay: fluorescence polarization; remark: listed apart in the source

B1: CORE crystal 17-mer (dsDNA)
DNA 1: GCCAGCAGGGGGCGCTA
DNA 2: TAGCGCCCCCTGCTGGC
CTCF ZF3-7 [1]
  binding result: binds

B2: CORE 5mC12 (dsDNA)
DNA 1: AGGACCAGCAGGGGGCGCA
DNA 2: TGCGCCCCCTGCTGGTCCT
modifications: 5mC at nt 16 of top strand (motif position 12)
CTCF ZF4-7 [2]
  binding signal: 1.5 fold higher affinity than CORE

B3: CORE 5mC2 (dsDNA)
DNA 1: AGGACCAGCAGGGGGCGCA
DNA 2: TGCGCCCCCTGCTGGTCCT
modifications: 5mC at nt 6 of top strand (motif position 2)
CTCF ZF4-7 [3]
  binding signal: ~23 fold lower affinity than CORE

B4: CORE A3G (dsDNA)
DNA 1: AGGACCGGCAGGGGGCGCA
DNA 2: TGCGCCCCCTGCCGGTCCT
CTCF ZF4-7 [4]
  binding signal: ~1 fold affinity vs CORE (indistinguishable)

B5: CORE (dsDNA)
DNA 1: AGGACCAGCAGGGGGCGCA
DNA 2: TGCGCCCCCTGCTGGTCCT
CTCF ZF3-7 [5]
  binding signal: ~4 fold higher affinity than without ZF3
CTCF ZF4-8 [6]
  binding signal: ~1 fold affinity vs ZF4-7 on CORE (similar)
CTCF ZF4-7 [7]
  binding signal: 1 fold (reference)
CTCF ZF3-7 [8]
  binding signal: ~6 fold higher affinity than without ZF3

B6: H19 (dsDNA)
DNA 1: GTTGCCGCGTGGTGGCAG
DNA 2: CTGCCACCACGCGGCAAC
CTCF ZF4-7 [9]
  binding signal: ~6 fold lower affinity than CORE

B7: control (dsDNA)
DNA 1: AATGGACGAGTCATAGGAGA
DNA 2: TTCTCCTATGACTCGTCCAT
CTCF ZF4-8 [10]
  binding signal: ~10 fold higher affinity than without ZF8 on control
